Test results reported in paper PMC6259754.
Values joined by “and” are separate entries in the source; they are usually repeats but may differ in a detail not shown here. Equal entries are not always repeated.

B1: Bovine fibrinogen (complex)
chain 1: GPRLVERQQSACKETGWPFCSDEDWNTKCPSGCRMKGLIDEVDQDFTSRINKLRDSLFNYQKNSKDSNTLTKNIVELMRGDFAKANNNDNTFKQISEDLRSRIEILRRKVIEQVQRIKVLQKNVRDQLVDMKRLEVDIDIKIRSCKGSCSRALEHKVDLEDYKNQQKQLEQVIAINLLPSRDIQYLPLIKMSTITGPVPREFKSQLQEAPLEWKALLEMQQTKMVLETFGGDGHARGDSVSQGTGLAPGSPRKPGTSSIGNVNPGSYGPGSSGTWNPGRPEPGSAGTWNPGRPEPGSAGTWNPGRPEPGSAGTWNPGRPEPGSAGTWNPGRPEPGSAGTWNTGSSGSSSFRPDSSGHGNIRPSSPDWGTFREEGSVSSGTKQEFHTGKLVTTKGDKELLIDNEKVTSGHTTTTRRSCSKVITKTVTNADGRTETTKEVVKSEDGSDCGDADFDWHHTFPSRGNLDDFFHRDKDDFFTRSSHEFDGRTGLAPEFAALGESGSSSSKTSTHSKQFVSSSTTVNRGGSAIESKHFKMEDEAESLEDLGFKGAHGTQKGHTKARPARGIHTSPLGEPSLTP
chain 2: GHRPYDKKKEEAPSLRPVPPPISGGGYRARPATATVGQKKVERKPPDADGCLHADPDLGVLCPTGCKLQDTLVRQERPIRKSIEDLRNTVDSVSRTSSSTFQYITLLKNMWKGRQNQVQDNENVVNEYSSHLEKHQLYIDETVKNNIPTKLRVLRSILENLRSKIQKLESDVSTQMEYCRTPCTVTCNIPVVSGKECEKIIRNEGETSEMYLIQPEDSSKPYRVYCDMKTEKGGWTVIQNRQDGSVDFGRKWDPYKQGFGNIATNAEGKKYCGVPGEYWLGNDRISQLTNMGPTKLLIEMEDWKGDKVTALYEGFTVQNEANKYQLSVSKYKGTAGNALIEGASQLVGENRTMTIHNSMFFSTYDRDNDGWKTTDPRKQCSKEDGGGWWYNRCHAANPNGRYYWGGAYTWDMAKHGTDDGVVWMNWQGSWYSMKKMSMKIRPYFPEQ
chain 3: YVATRDNCCILDERFGSYCPTTCGIADFLNNYQTSVDKDLRTLEGILYQVENKTSEARELVKAIQISYNPDQPSKPNNIESATKNSKSMMEEIMKYETLISTHESTIRFLQEVYNSNSQKIVNLRDKVVQLEANCQEPCQDTVKIHDVTGRDCQDVANKGAKESGLYFIRPLKAKQFLVYCEIDGSGNGWTVFQKRLDGSLDFKKNWIQYKEGFGHLSPTGTGNTEFWLGNEKIHLISTQSSIPYVLRIQLEDWNGRTSTADYASFKVTGENDKYRLTYAYFIGGDAGDAFDGYDFGDDSSDKFFTSHNGMQFSTWDSDNDKYDGNCAEQVGIGWWMNKCHAGHLNGVYYQGGTYSKTSTPNGYDNGIIWATWKSRWYSMKKTTMKIIPLNRLAIGEGQQHQLGGAKQVGVEHHVEIEYD
B2: Bovine fetuin (natural protein)
chain: IPLDPVAGYKEPACDDPDTEQAALAAVDYINKHLPRGYKHTLNQIDSVKVWPRRPTGEVYDIEIDTLETTCHVLDPTPLANCSVRQQTQHAVEGDCDIHVLKQDGQFSVLFTKCDSSPDSAEDVRKLCPDCPLLAPLNDSRVVHAVEVALATFNAESNGSYLQLVEISRAQFVPLPVSVSVEFAVAATDCIAKEVVDPTKCNLLAEKQYGFCKGSVIQKALGGEDVRVTCTLFQTQPVIPQPQPDGAEAEAPSAVPDAAGPTPSAAGPPVASVVVGPSVVAVPLPLHRAHYDLRHTFSGVASVESSSGEAFHVGKTPIVGQPSIPGGPVRLCPGRIRYFKI
modifications: glycoprotein with N-linked biantennary and triantennary complex oligosaccharides (sites not given)

Assays:
[1] = target: Phaseolus acutifolius agglutinin (lectin from white tepary bean, Phaseolus acutifolius variety latifolius) (Phaseolus acutifolius)
[2] = target: Phaseolus acutifolius agglutinin (lectin from white tepary bean, Phaseolus acutifolius variety latifolius) (Phaseolus acutifolius); experiment: SEC; TSK 3000 SW HPLC column in PBS, 0.5 mL/min, 0.1 mg pure lectin; data not shown
[3] = target: Phaseolus acutifolius agglutinin (lectin from white tepary bean, Phaseolus acutifolius variety latifolius) (Phaseolus acutifolius); experiment: native gel or EMSA
[4] = target: Phaseolus acutifolius agglutinin (lectin from white tepary bean, Phaseolus acutifolius variety latifolius) (Phaseolus acutifolius); experiment: SEC

| Molecule | Inhibitory concentration (lowest concentration giving complete inhibition) of hemagglutination of trypsinized human A erythrocytes by PAA [1] | Inhibitory concentration (lowest concentration giving complete inhibition) of hemagglutination of trypsinized human O erythrocytes by PAA [1] | stoichiometry N [2] | stoichiometry N [3] | stoichiometry N [4] |
| --- | --- | --- | --- | --- | --- |
| Ovoalbumin (from UniProt P01012 1-386) (natural protein) | 1.3 mg/mL | 1.3 mg/mL |  |  |  |
| Phaseolus acutifolius agglutinin (lectin from white tepary bean, Phaseolus acutifolius variety latifolius) (natural protein) |  |  | 2 | > 4 | 4 and 2 |
| Porcine thyroglobulin (from UniProt F1RRV3 20-2692) (natural protein) | 0.0048 mg/mL | 0.0048 mg/mL |  |  |  |
| Recombinant soluble human β-1,6-N-acetylglucosaminyltransferase V (from UniProt Q09328 1-741) (enzyme) | 0.0273 mg/mL | 0.0017 mg/mL |  |  |  |
| B1 | 0.0391 mg/mL | 0.0098 mg/mL |  |  |  |
| B2 | 0.156 mg/mL | 0.0781 mg/mL |  |  |  |
